Test results reported in publication PMC5751167, “Buprofezin Is Metabolized by CYP353D1v2, a Cytochrome P450 Associated with Imidacloprid Resistance in Laodelphax striatellus” (International Journal of Molecular Sciences, 2017).

What was measured:
[1] = substrate: O=[N+]([O-])NC1=NCCN1Cc1ccc(Cl)nc1; experiment: substrate depletion, Sf9 microsomes; format: biochemical, Laodelphax striatellus; conditions: 0-50 µM substrate; CPR co-expressed
[2] = substrate: COc1ccc([N+](=O)[O-])cc1; experiment: cells, lysate or membranes; format: biochemical, Laodelphax striatellus; conditions: NADPH, 30 °C, 1 pmol P450, 0-100 µM substrate, CPR co-expressed

B1: CYP353D1v2 (Laodelphax striatellus) (protein)
chain: MVKINGKWLTKYFSTAKVKPYDEIPTLPKWPFLGHAYLFFPNGKYKLERLGDAILDLRRTLGNIFKLNLNGDDLVVSLNPDDARSMYTAEGKLPYRPSFPALANYRKNTFGSIGVVPGNGEEWLHYRKAVLPLLKSNIVVAYAEDHKLIASRFVDYIGRNRGRSNELNDVFNHLLKFAIEATSITCPGVLFNCLDESLDKSDVSNVVTKASVDFMEGMYRTLVEPPFWKMWKTKSYRKLEQSHTAIHRLIADGIEKTKEDLKNNPNKHPFMASLFENSTLSENEILVLAMEVFLGGLDATPTTLAMTLHYLAQNPEAQSKAFNEISSQKQLKYVEACLKETLRLAPSAGASSRYLAEEAVLSGYLVPANTLVAVFSPITSRDEKYFHSPLEFIPERWFRENKAMRHPFASIPFGFGARVCPGRHFVNQEMVIFLTEILRNFKLNSNNGQVGMIHRMNRIPDQEIAIFFNDR
notes: with NADPH--cytochrome P450 reductase
B1 was tested, and the Km [1] was 6.41 ± 1.27 µM, the kcat [1] was 0.001 ± 1.3e-05 s⁻¹ and the Km [2] was 6.21 ± 0.65 µM.
